From US20230295310A1 (ABCELLERA BIOLOGICS, published 2023)
Substitutions are numbered along the chain they refer to.

B1: mAb 109 (antibody, V domains shown)
VH: QVQLVESGGGVVQPGRSLRLSCVASGFPFRSYGMHWVRQAPGKGLEWVAFIWYDGSNKYYADSVRGRFTISRDNFKKMVYLQMNSLRAEDTAVYYCARDLAGIYAFDVWGQGTVVTVSS
VL: EIVMTQSPATLSVSPGERATLSCRASQSVSSNLAWYQQKPGQAPRLLIYGASTRATGIPARFSGSGSGTEFTLTVSSLQSEDFAIYYCQQYNNWRPLTFGGGTKVEIK
notes: VH and VL only
B2: mAb 258 (antibody, V domains shown)
VH: EVQLLESGGGLVQPGGSLRLSCAASGFTFSNYAMNWVRQAPGKGLEWVSVISNSGGTRLYVDSVKGRFTISRDNSKNTLYLQMSSLRAADTAVYYCAKDAAAALYYYYFYYMDVWGKGTTVTVSS
VL: EIVLTQSPDFQSVTPKEKVTITCRASQSIGSSLHWYQQKPDQSPKLLIKYASQSFSGVPSRFSGSGSGTDFTLTINSLEAEDAATYYCHQSSSLPYTFGQGTKLEIK
notes: VH and VL only
B3: mAb 286 (antibody, V domains shown)
VH: EVKLVESGGGVVRPGGSLRLSCAASGFTFDDYGMSWVRQAPGKGLEWVSGISWNGGSTGYADSVKGRFTISRDNAKNSLYLQMNSLRAEDTALYHCARDGVPVVKRRYYYYYMDVWGKGTTVTVSS
VL: B2 VL with S65R, S92G, Y96Q, L104V
notes: VH and VL only
B4: mAb 290 (antibody, V domains shown)
VH: B3 VH with K3Q
VL: B2 VL with V19I, S92A, Y96Q, L104V
notes: VH and VL only
B5: mAb 284 (antibody, V domains shown)
VH: EVQLLESGGGLVQPGGSLRLSCAASGFTFSSYAMSWVRQAPGKGLEWVSAISGSSGRTYYTDSVKGRFTISRDNSKNTLSLQMNSLRAEDTAVYYCAKKYSYYYYYMDVWGKGTTVTVSS
VL: SYELTQPLSVSVALGQTAKITCGGNNIGSKNVHWYQQKPGQAPVLVIYRDSNRPSGIPERFSGSNSGNTATLTISRAQAGDEADYYCQVWDSSTAVFGGGTQLTAL
notes: VH and VL only
B6: mAb 318 (antibody, V domains shown)
VH: EGQLLESGGGLVQPGGSLRLSCAASGFTFSRYAMSWIRQAPGKGLEWVSVIDGSGGDKNYADSVKGRFTISRDNSKNSLYLLMNGLRVEDTAIYFCAKKFSYYYYYMDVWGKGTSVTVSS
VL: B5 VL with K19R, S29G, N31D, S93R
notes: VH and VL only
B7: mAb 306 (antibody, V domains shown)
VH: EVQLLESGGGLVQPGGSLRLSCAASGFTFNSYAMSWVRQAPGRGLEWVSAISGRKSTTYYADSVKGRFTISRDNSKNTLYLQMNSLRAEDTAVYYCAKLWNYYYYYMDVWGKGTTVTVSS
VL: B5 VL with K19R, N31D
notes: VH and VL only
B8: mAb 285 (antibody, V domains shown)
VH: B5 VH with V12G, S31N, A50V, S55G, R57D, T58K, Y59N, T61A, S80Y
VL: B5 VL with K19R, N31D, R76S, S93R
notes: VH and VL only
B9: mAb 316 (antibody, V domains shown)
VH: EVQLLESGGGLVQPGGSRRLSCAASGFTFRTYAMSWVRQAPGKGLEWVSVINGRGDDTNYADSVKGRFTISRDNSKNILFLQMNSLRAEDTAVYYCAKKYSYYYYYMDVWGKGTTVTVSS
VL: B5 VL with K19R, N31D, S93R
notes: VH and VL only
B10: mAb 304 (antibody, V domains shown)
VH: B9 VH with R30S, T31S, N52S, D57N, D73E, F80Y
VL: B5 VL with K19R, N31D, S93R
notes: VH and VL only
B11: mAb 301 (antibody, V domains shown)
VH: B9 VH with R30S, T31S, N52S, D57N, D73E, I78M, F80Y
VL: B5 VL with K19R, N31D, S93R
notes: VH and VL only
B12: mAb 77 (antibody, V domains shown)
VH: EVQLVESGGGLVQPGGSLRLSCAASGFTFSNYWMSWVRQAPGKGLEWVANIKQDGSEKYYVDSVRGRFTISRDNAKKSLYLQMNSLRAEDTAVYYCARDNSNYAYWYFDIWGRGTLVTVSS
VL: DIQMTQSPSTLSVSVGDRVTITCRASQSIRKWLAWYQQKPGKAPKLLIFKASSLESGVPSRFSGSGSGTEFTLTISSLQPDDFATYYCQQYDTYSRTFGQGTKVEIK
notes: VH and VL only

These binders were tested against T1, human CD3e/d (human, UniProt P07766 23-126; P04234 22-105) (assay: SPR (Carterra LSA), mAb on chip).
T1 construct: Bought soluble protein; also called hCD3e/d; human CD3/ed (Sino CT038-H2508H)
Description: High-throughput surface plasmon resonance (SPR) coupled kinetic experiments were performed on a Carterra LSA® instrument equipped with an HC-30M chip type (Carterra, USA). The instrument uses two microfluidic modules, a single-flow cell (SFC) and a 96 printhead, to deliver samples to the chip surface via back-and-forth cycling of a fixed sample volume. An up to 384-ligand array is generated by docking the MFC onto each of the four nested print block locations in a serial manner.
The purified mAbs were immobilized on a Carterra LSA® HC-30M chip by direct coupling. The chip surface was first activated by flowing a freshly prepared 1:1:1 activation mix of 100 mM MES pH 5.5, 100 mM S-NHS, 400 mM EDC for 7 min. mAbs diluted to 10 μg/mL in 10 mM NaOAc pH 4.25+0.01% TWEEN®20 were then injected and printed onto the chip surface simultaneously using the MFC printhead for 10 min. Finally, the chip surface was quenched by flowing 1 M ethanolamine for 7 min (to block the excess reactive esters), followed by 2 wash steps of 15 s each in 25 mM MES pH 5.5. In addition to expressed and purified mAbs, relevant benchmarks and negative control mAbs were also printed on the chip surface.
The data were analyzed using the Carterra Kinetics analysis software. Briefly, the data were referenced with the interstitial reference spots and double-referenced to a buffer cycle, and then fit globally to a 1:1 Langmuir binding model to determine their apparent association (ka) and dissociation (kd) kinetic rate constants and binding affinity constants (KD).

T1 sequence (P07766 23-126, chain 1 of 2): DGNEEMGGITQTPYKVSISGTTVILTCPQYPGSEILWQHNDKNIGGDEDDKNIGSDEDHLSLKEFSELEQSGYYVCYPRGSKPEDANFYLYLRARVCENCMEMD
T1 sequence (P04234 22-105, chain 2 of 2): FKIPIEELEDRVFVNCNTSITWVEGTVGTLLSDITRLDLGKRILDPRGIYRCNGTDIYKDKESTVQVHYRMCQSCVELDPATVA

Kd [nM]	Binder
21.7	B1
24	B2
580	B3
3200	B4
450	B5
84	B6
250	B7
150	B8
70	B9
120	B10
110	B11
286	B12
